Values belong to the molecule of their own block, whether it stands above or below them. Bridges are numbered along the chain shown (N, C = ends). Where no end group is shown, it is not given here.
Assays:
rabbit albumin [1] = target: T1, rabbit albumin (Oryctolagus cuniculus, UniProt P49065); assay: Direct Binding ELISA, AB.Fab variants on immobilized rabbit albumin; design: purchased Sigma; details: average and SD of at least 3 determinations
Experimental: (§1) Mouse, rat, or rabbit albumin (Sigma, St. Louis, Mo.) were immobilized onto NUNC Maxisorp™ 96-well plates at 2 ug/ml overnight at 4° C. […] AB.Fab variants were serially diluted in binding buffer and added at 100 μl per well to the immobilized albumin for 30 minutes at 25° C. Unbound AB.Fab variant was removed by washing wells with 0.05% PBS/Tween® 20 and bound AB.Fab variant was detected with goat anti-human Fab′2-HRP for 1 hour at 25° C. Bound HRP was measured with a solution of tetramethylbenzidine (TMB)/H202. After 15 minutes, the reaction was quenched by the addition of 1M phosphoric acid.
(§2) Initially we explored binding of the AB.Fab variants to immobilized albumin using a Direct Binding ELISA.

mouse albumin = target: T2, mouse albumin (Mus musculus, UniProt P07724); assay: Direct Binding ELISA, AB.Fab variants on immobilized mouse albumin; details: average and SD of at least 3 determinations
T2 construct: purchased Sigma
T2 sequence (P07724 25-608): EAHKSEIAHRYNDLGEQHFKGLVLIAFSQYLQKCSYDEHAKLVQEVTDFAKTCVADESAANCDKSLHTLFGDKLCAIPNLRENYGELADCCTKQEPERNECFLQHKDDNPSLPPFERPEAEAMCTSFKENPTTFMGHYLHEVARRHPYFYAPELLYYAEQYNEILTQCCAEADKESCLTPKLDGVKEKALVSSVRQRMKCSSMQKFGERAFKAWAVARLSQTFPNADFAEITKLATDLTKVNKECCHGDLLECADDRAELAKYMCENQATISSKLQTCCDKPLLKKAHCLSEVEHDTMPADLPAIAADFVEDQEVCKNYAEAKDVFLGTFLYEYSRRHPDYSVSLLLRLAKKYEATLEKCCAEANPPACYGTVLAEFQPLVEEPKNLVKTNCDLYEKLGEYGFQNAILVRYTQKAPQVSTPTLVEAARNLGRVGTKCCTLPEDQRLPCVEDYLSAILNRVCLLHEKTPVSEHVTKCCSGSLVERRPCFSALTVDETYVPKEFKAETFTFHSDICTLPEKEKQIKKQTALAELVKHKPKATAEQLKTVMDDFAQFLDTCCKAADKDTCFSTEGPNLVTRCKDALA
Experimental: as §1, §2

rat albumin [2] = target: T3, rat albumin (Rattus norvegicus, UniProt P02770); assay: Direct Binding ELISA, AB.Fab variants on immobilized rat albumin; design: purchased Sigma; details: average and SD of at least 3 determinations
T3 sequence (P02770 25-608): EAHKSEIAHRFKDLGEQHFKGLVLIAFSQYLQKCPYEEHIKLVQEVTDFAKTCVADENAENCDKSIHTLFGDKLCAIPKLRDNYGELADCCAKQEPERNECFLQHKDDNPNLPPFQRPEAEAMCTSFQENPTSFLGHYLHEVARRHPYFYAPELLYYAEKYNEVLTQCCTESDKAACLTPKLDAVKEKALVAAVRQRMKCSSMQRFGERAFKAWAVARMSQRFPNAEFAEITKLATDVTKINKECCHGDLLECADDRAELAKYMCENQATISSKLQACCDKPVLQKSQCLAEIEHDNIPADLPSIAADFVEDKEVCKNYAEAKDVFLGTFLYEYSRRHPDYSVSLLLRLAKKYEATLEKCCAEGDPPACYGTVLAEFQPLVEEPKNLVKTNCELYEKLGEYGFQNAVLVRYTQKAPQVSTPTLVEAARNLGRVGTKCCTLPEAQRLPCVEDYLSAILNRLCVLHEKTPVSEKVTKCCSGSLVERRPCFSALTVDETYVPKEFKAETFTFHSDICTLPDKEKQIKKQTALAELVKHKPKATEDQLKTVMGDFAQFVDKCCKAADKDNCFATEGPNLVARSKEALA
Experimental: as §1, §2

rat albumin [3] = target: T3, rat albumin; assay: Solution Binding ELISA, AB.Fab variants with soluble rat albumin; design: purchased Sigma; details: Rat Albumin, soluble; Scatchard; average and SD of at least 3 determinations; read-out: Solution Binding ELISA (Kd)
rabbit albumin [4] = target: T1, rabbit albumin; details: FIG. 3
rat albumin [5] = target: T3, rat albumin; details: FIG. 3
[6] = Pharmacokinetics of D3H44 variants in rabbits (TF binding ELISA); format: in vivo, rabbit; design: V1 Avg (Historical): unit not given here
Experimental: D3H44 variants were administered to rabbits as a 0.5 mg/kg bolus injection into the marginal ear vein. Each test group consisted of 3 rabbits (5 rabbits were used in the F(ab′)2 group). Serum samples were taken at the indicated time points, serially diluted, and the concentration of D3H44 was determined using a TF binding ELISA.
Pharmacokinetic analysis was performed using the test article plasma concentrations. Group mean plasma data for each test article conforms to a multi-exponential profile when plotted against the time post-dosing. The data were fit by a standard two-compartment model with bolus input and first-order rate constants for distribution and elimination phases. The general equation for the best fit of the data for i.v. administration was: c(t)=Ae^−αt+[…], where c(t) is the plasma concentration at time t, A and B are intercepts on the Y-axis, and α and β are the apparent first-order rate constants for the distribution and elimination phases, respectively. The α-phase is the initial phase of the clearance and reflects distribution of the protein into all extracellular fluid of the animal, whereas the second or β-phase portion of the decay curve represents true plasma clearance. Methods for fitting such equations are well known in the art. For example, A=D/V(α−k21)/(α−β), B=D/V (β−k21)/(α−β), and α and β (for α>β) are roots of the quadratic equation: r^2+(k12+k21+k10)r+k21k10=0 using estimated parameters of V=volume of distribution, k10=elimination rate, k12=transfer rate from compartment 1 to compartment 2 and k21=transfer rate from compartment 2 to compartment 1, and D=the administered dose.
Data analysis: Graphs of concentration versus time profiles were made using KaleidaGraph (KaleidaGraph™ V. 3.09 Copyright 1986-1997. Synergy Software. Reading, Pa.). Values reported as less than reportable (LTR) were not included in the PK analysis and are not represented graphically. Pharmacokinetic parameters were determined by compartmental analysis using WinNonlin software (WinNonlin® Professional V. 3.1 WinNonlin™ Copyright 1998-1999. Pharsight Corporation. Mountain View, Calif.). Pharmacokinetic parameters were computed as described in Ritschel W A and Kearns G L, 1999, IN: Handbook Of Basic Pharmacokinetics Including Clinical Applications, 5th edition, American Pharmaceutical Assoc., Washington, D.C.

TF and albumin = assay: biotin-TF binding assay (fusion on immobilized albumin detected with biotinylated TF); details: FIG. 8
Source text: Purified D3H44 fusions retained their ability to bind TF as measured using a FX activation assay (FIG. 5), and a prothrombin time assay that measures prolongation of tissue factor dependent clotting (FIG. 6). The assay methods are described, for example, in Dennis et al., 2000, Nature 404: 465. […] Further, each of the albumin-binding fusions bound TF and albumin simultaneously. […] In this assay, binding of the D3H44 fusions to immobilized albumin was detected with biotinylated TF.

[7] = in vivo; cited from earlier work
[8] = in vivo; cited from earlier work; remark: listed apart in the source
[9] = in vivo; cited from earlier work; remark: listed apart in the source
[10] = in vivo; cited from earlier work; remark: listed apart in the source
[11] = Summarized Pk Data (Historical)

T1 sequence (P49065 25-608): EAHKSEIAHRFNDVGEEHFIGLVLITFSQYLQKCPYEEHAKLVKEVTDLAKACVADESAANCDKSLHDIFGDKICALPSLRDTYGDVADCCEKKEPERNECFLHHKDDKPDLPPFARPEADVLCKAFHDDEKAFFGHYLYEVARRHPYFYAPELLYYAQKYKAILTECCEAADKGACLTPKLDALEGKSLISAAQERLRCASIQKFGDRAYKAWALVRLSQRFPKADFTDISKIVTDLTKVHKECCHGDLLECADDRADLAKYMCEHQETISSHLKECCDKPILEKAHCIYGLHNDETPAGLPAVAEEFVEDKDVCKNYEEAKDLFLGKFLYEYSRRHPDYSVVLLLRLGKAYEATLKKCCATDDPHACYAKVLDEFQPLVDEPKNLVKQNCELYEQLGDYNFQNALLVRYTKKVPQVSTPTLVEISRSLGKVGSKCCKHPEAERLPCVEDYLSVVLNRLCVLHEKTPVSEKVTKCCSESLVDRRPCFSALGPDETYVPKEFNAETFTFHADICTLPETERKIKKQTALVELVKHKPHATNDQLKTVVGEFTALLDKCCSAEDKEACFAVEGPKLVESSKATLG

- EC50 (rabbit albumin [1]): > 2000 nM
- EC50 (mouse albumin): > 2000 nM
- EC50 (rat albumin [2]): > 1000 nM
- Kd (rat albumin [3]): 2430 ± 320 nM
Molecule: 4D5-H11: AB.Fab variant made by deletion in 4D5-H4 (Table 12) (DICLPRWGCL; disulfide 3-9 (inferred); also: part of Fab heavy chain)

Molecule: CC[C@H](C)[C@H](NC(=O)[C@H](CC(C)C)NC(=O)CNC(=O)[C@H](CCC(N)=O)NC(C)=O)C(=O)NCC(=O)N[C@@H](CC(=O)O)C(=O)N[C@H](C(=O)N[C@H]1CSSC[C@@H](C(=O)N[C@@H](CC(C)C)C(=O)N[C@@H](Cc2c[nH]c3ccccc23)C(=O)NCC(=O)N[C@@H](CC(=O)O)C(=O)N[C@@H](CO)C(=O)N[C@H](C(=O)N[C@@H](CCCCN)C(N)=O)C(C)C)NC(=O)CNC(=O)[C@H](Cc2c[nH]c3ccccc23)NC(=O)[C@H](CCCNC(=N)N)NC(=O)[C@@H]2CCCN2C(=O)[C@H](CC(C)C)NC1=O)[C@@H](C)CC [SA08]
- inhibition of BA phage binding to rabbit albumin (rabbit albumin [4]): clearly blocked
- inhibition of RD phage binding to rat albumin (rat albumin [5]): clearly blocked

- simultaneous binding of TF and albumin (TF and albumin): did not bind albumin
Molecule: D3H44-Fab: Fab fragment of D3H44, a humanized antibody that binds human tissue factor (TF)
- AUC Avg (Historical) [6, 11]: 9800 ng·h/mL
- AUC/Dose Avg (Historical) [6, 11]: 19.7 (hr * ug/mL)(/(mg/kg)
- CL Avg (Historical) [6, 11]: 0.863 mL/min/kg
- K10-HL Avg (Historical) [6, 11]: 0.760 hr
- V1 Avg (Historical) [6, 11]: 55.9
- Vss Avg (Historical) [6, 11]: 0.127 L/kg
- AUC Avg ([6]; rabbit, 0.5 mg/kg bolus i.v.): 5860 ng·h/mL
- AUC/Dose Avg ([6]; rabbit, 0.5 mg/kg bolus i.v.): 14.8 (hr * ug/mL)/(mg/kg)
- Cmax Avg ([6]; rabbit, 0.5 mg/kg bolus i.v.): 5000 ng/mL
- MRT Avg ([6]; rabbit, 0.5 mg/kg bolus i.v.): 3.07 h
- V1* Avg (initial distribution volume) ([6]; rabbit, 0.5 mg/kg bolus i.v.): 0.0906 L/kg

Molecule: albumin
- half-life in rat [7]: 45.6 h
- half-life in rabbit [8]: 133 h
- half-life in man [9]: 456 h
- half-life in mouse [10]: 24 h
